The source of these data is article PMC4385862.

For series [1] the following is noted: phosphorylation at Y342.
For series [2], the target named is β1 integrin (UniProt P05556). Nature of the series: co-immunoprecipitation and Western blot. To be noted: reference: wild-type GFP-K18; sites S52. (In general: In western blotting, separated proteins are transferred to a membrane and probed.)

As to ClC-3: Y342F, the other entry in series [1] is recorded as “decreases”.

Regarding “keratin 18 (K18) (from UniProt P05783) S52A GFP-K18”, in series [2], the “binding against the reference” value is “lost”.
